Consider eight molecules from patent US20120201746A1 (AbbVie / Abbott, published 2012).

Positions count from the first letter of the chain named. In names and notes the source's numbering stands. Read-outs that look alike come from different tables or passages of the source.

The target in test [1] is T1, Recombinant Human IL-1β (human, UniProt P01584 117-269).
T1 construct: also called IL-1b
The experiment in a line: SPR (BIAcore).
Experimental: (§1) The BIAcore® assay (BIAcore®, Inc, Piscataway, N.J.) determines the affinity of antibodies with kinetic measurements of on-rate and off-rate constants. Binding of antibodies to a target antigen (for example, a purified recombinant target antigen) is determined by surface plasmon resonance-based measurements with a BIAcore® 1000 or 3000 instrument (BIAcore® AB, Uppsala, Sweden) using running HBS-EP (10 mM HEPES [pH 7.4], 150 mM NaCl, 3 mM EDTA, and 0.005% surfactant P20) at 25° C. […] Unreacted moieties on the biosensor surface are blocked with ethanolamine. Modified carboxymethyl dextran surface in flowcell 2 and 4 is used as a reaction surface. Unmodified carboxymethyl dextran without goat anti-mouse IgG in flow cell 1 and 3 is used as the reference surface. For kinetic analysis, rate equations derived from the 1:1 Langmuir binding model are fitted simultaneously to association and dissociation phases of all eight injections (using global fit analysis) with the use of Biaevaluation 4.0.1 software. Purified antibodies are diluted in HEPES-buffered saline for capture across goat anti-mouse IgG specific reaction surfaces. […] The association and dissociation rate constants, kₒₙ (M⁻¹s⁻¹) and koff (s⁻¹), are determined under a continuous flow rate of 25 μl/minute. Rate constants are derived by making kinetic binding measurements at different antigen concentrations ranging from 10-200 nM. The equilibrium dissociation constant (M) of the reaction between antibodies and the target antigen is then calculated from the kinetic rate constants by the following formula: KD=koff/kₒₙ. Binding is recorded as a function of time and kinetic rate constants are calculated.

For test [2], the target named is T1, Recombinant Human IL-1β. The experiment in a line: SPR (BIAcore); *off-rate at the limit of dissociation after 1 hour.
Experimental: The BIAcore® assay (BIAcore®, Inc, Piscataway, N.J.) determines the affinity of antibodies with kinetic measurements of on-rate and off-rate constants. Binding of antibodies to a target antigen (for example, a purified recombinant target antigen) is determined by surface plasmon resonance-based measurements with a BIAcore® 1000 or 3000 instrument (BIAcore® AB, Uppsala, Sweden) using running HBS-EP (10 mM HEPES [pH 7.4], 150 mM NaCl, 3 mM EDTA, and 0.005% surfactant P20) at 25° C. […] Unreacted moieties on the biosensor surface are blocked with ethanolamine. Modified carboxymethyl dextran surface in flowcell 2 and 4 is used as a reaction surface. Unmodified carboxymethyl dextran without goat anti-mouse IgG in flow cell 1 and 3 is used as the reference surface. […] The association and dissociation rate constants, kₒₙ (M⁻¹s⁻¹) and koff (s⁻¹), are determined under a continuous flow rate of 25 μl/minute. […] The equilibrium dissociation constant (M) of the reaction between antibodies and the target antigen is then calculated from the kinetic rate constants by the following formula: KD=koff/kₒₙ. Binding is recorded as a function of time and kinetic rate constants are calculated.
The target of test [3] is T1, Recombinant Human IL-1β. The experiment in a line: cell-based or functional assay.
Test [4] concerns the target T2, Neonatal Fc receptor (FcRn) on CHO-FcRnGPI cells.
T2 construct: whole, on cells; also called FcRn receptor
The experiment in a line: flow cytometry on CHO-FcRnGPI cells, pH 6.4.
Experimental: (§2) CHO-FcRnGPI cells (Stable FcRn receptor expressor) and CHO-pBudl l cells (non-FcRn expressor) were aliquotted into 96-well plates at 1×10⁵ cells/well. Cells were resuspended in 150 μl FACS buffer. Anti-c-Met Ab and half-Ig binding proteins were diluted to 100 μg/ml in FACS buffer pH 6.4 and pH 7.4. 30 μl of diluted antibody or half-Ig binding protein was added to each well and incubated on ice for 1 hour. Following 2 washes with FACS buffer, 50 μl of secondary antibody R-phycoerythrin-conjugated AfiniPure F(ab′)₂ Fragment goat anti-human IgG (Jackson ImmunoResearch®, West Grove, Pa.) diluted in FACS buffer pH 6.4 or pH7.4 was added. The mixture was incubated for 30 min on ice. The cells were resuspended in 100 μl PBS with 1% FBS (Invitrogen®, Carlsbad, Calif.) and 2 μg/ml propidium iodide (Invitrogen®, Carlsbad, Calif.) of the corresponding pH. Final FACS data were acquired on a FACScan (Becton Dickinson, Franklin Lakes, N.J.).

The target in test [5] is T3, biotin-labeled c-Met (UniProt P08581 25-932, limits assumed, biotin-labeled). The experiment in a line: ELISA, biotin-labeled c-Met detected with streptavidin-HRP; parental full antibody.
Experimental: (§3) c-Met binding ELISA was performed to characterize the antigen binding property of anti-c-Met half-Igs. 96-well ELISA plates were coated with 100 μl/well 5 μg/ml anti-mouse IgG Fc in PBS at 4° C. overnight. After 3 washes with PBS/0.05% Tween®20, the plates were blocked with 5% milk in PBS for 1 hour at room temperature. After another 3 washes with PBS/0.05% Tween®20, 100 μl c-Met antibody or half-Ig was added to each well followed by an incubation of 1 hour at room temperature. Binding biotin-labeled c-Met was detected by Streptavidin-horseradish peroxidase (KPL, Gaithersburg, Md.) and tetramethylbenzidine (Thermo Scientific, Rockford, Ill.). Final absorbances were acquired at 450 nm after stopping the reactions with 2 mol/L H₂SO₄.
The target in test [6] is T2, Neonatal Fc receptor (FcRn) on …. The experiment in a line: flow cytometry on CHO-FcRnGPI cells, pH 6.4. This is another data set of the same source.
Experimental: as §2
Test [7] has as its target T3, biotin-labeled c-Met. The experiment in a line: ELISA, biotin-labeled c-Met detected with streptavidin-HRP; half-Ig (cMet-Mut6).
Experimental: as §3
Test [8] concerns the target T4, human IL-12 (human, UniProt P29459 23-219; P29460 23-328).
T4 construct: Human is stated for the bioassay; also called rhIL-12
T4 sequence (looked up) 1: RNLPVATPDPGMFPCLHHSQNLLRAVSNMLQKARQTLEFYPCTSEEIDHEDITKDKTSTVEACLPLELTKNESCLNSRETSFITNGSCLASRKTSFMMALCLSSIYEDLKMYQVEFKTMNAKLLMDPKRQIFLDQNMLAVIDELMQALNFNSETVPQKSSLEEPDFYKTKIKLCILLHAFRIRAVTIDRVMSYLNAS
T4 sequence (looked up) 2: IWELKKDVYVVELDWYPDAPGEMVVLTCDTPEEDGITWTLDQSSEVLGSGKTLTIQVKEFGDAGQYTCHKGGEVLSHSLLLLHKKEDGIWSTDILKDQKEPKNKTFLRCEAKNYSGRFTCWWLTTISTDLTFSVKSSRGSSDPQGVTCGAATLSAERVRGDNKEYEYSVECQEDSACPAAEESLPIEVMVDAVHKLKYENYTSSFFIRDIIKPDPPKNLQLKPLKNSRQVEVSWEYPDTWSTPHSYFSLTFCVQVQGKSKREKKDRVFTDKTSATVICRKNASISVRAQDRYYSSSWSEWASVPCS
The experiment in a line: SPR (BIAcore).
Experimental: as §1

The target of test [9] is T5, recombinant human IL-18 (human, UniProt Q14116 37-193).
T5 construct: Human is stated for the KG-1 bioassay; also called rhIL-18; rIL-18
The experiment in a line: SPR (BIAcore).
Experimental: as §1

Test [10] deals with T4, human IL-12. The experiment in a line: cell-based or functional assay.
Test [11] has as its target T5, recombinant human IL-18. The experiment in a line: cell-based or functional assay.

T2 sequence (P55899 24-297, chain 1 of 2): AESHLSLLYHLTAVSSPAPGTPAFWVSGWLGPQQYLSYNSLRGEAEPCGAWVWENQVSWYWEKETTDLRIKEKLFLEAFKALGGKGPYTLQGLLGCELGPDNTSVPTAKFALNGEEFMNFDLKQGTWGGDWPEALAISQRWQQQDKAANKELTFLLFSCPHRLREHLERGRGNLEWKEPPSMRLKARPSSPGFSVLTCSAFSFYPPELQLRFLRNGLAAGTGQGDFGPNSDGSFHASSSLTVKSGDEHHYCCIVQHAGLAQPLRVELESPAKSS
T2 sequence (P61769 21-119, chain 2 of 2, further chain): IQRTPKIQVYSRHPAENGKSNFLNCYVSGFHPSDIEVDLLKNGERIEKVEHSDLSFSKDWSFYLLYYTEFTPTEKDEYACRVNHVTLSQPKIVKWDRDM
T3 sequence (P08581 25-932 limits assumed): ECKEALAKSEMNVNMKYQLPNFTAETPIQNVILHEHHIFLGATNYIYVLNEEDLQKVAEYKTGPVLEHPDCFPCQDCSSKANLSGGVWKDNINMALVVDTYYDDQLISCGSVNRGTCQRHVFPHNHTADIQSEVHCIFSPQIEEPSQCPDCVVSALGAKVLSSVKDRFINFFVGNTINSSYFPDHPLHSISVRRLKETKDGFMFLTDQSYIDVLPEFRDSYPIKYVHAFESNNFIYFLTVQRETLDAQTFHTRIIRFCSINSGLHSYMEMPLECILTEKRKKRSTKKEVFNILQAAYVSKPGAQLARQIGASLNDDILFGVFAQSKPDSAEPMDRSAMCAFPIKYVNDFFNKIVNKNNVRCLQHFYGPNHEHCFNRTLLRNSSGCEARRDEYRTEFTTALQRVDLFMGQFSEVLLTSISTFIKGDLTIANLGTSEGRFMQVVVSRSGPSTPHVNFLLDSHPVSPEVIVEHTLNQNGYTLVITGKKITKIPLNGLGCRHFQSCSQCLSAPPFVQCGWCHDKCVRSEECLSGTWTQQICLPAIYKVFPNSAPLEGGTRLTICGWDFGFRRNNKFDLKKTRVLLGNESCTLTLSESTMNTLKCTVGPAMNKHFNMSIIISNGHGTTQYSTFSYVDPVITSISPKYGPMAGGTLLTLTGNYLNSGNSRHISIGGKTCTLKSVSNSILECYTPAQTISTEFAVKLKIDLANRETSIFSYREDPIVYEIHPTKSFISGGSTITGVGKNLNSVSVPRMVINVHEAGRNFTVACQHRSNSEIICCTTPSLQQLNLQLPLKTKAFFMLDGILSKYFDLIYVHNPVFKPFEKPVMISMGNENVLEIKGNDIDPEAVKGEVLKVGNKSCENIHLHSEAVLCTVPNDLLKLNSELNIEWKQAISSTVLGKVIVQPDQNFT

B1: ½ IL1b DA1 Fc (Fc fusion)
chain: EVQLLESGGGLVQPGGSLRLSCAASGFTFADEGMMWVRQAPGKGLEWVSRITYSGKNTYYADSVKGRFTISRDNSKNTLYLQMNSLRAEDTAVYYCAKYTGRILGHHLFDYWGQGTLVTVSSEPKSSDKTHTSPPSPAPELLGGPSVFLFPPKPKDTLMISRTPEVTCVVVDVSHEDPEVKFNWYVDGVEVHNAKTKPREEQYNSTYRVVSVLTVLHQDWLNGKEYKCKVSNKALPAPIEKTISKAKGQPREPQVYTLPPSREEMTKNQVSLTCLVKGFYPSDIAVEWESNGQPENNYKTTPPVLDSDGSFRLYSKLTVDKSRWQQGNVFSCSVMHEALHNHYTQKSLSLSPGK
notes: Half domain antibody-Fc with Fc-Mut18; 82 % half-Ig by SEC; also called half IL1b DA1 Fc
Turning to B1, in the test with Recombinant Human IL-1β [1], the dissociation constant (Kd) was determined as 0.053 nM and the kon was determined as 120000 M⁻¹ s⁻¹. The koff in the test with Recombinant Human IL-1β [2] was 6.4e-06 s⁻¹. In addition, the “IL-1β Neutralization Assay EC50 nM; IL-8 release from MRC5 cells” value with Recombinant Human IL-1β [3] amounted to 0.155 nM.

B2: ½ IL1b DA2 Fc (Fc fusion)
chain: B1 chain with D31E, G33S, M34W, T52G, Y53Q, S54D, A61R, D62E, S63D, L104M
notes: Half domain antibody-Fc with Fc-Mut18; 83 % half-Ig by SEC; also called half IL1b DA2 Fc
On to B2, for which, in the test with Recombinant Human IL-1β [1], the Kd was 0.028 nM and the kon was found to be 170000 M⁻¹ s⁻¹. The koff in the test with Recombinant Human IL-1β [2] came out at 4.9e-06 s⁻¹.

B3: Anti-c-Met Ig (parental 5D5 anti-cMet antibody) (antibody, human IgG1, kappa)
heavy: not shown
light: DFMMSQSPSSLTVSVGEKVTVSCKSSQSLLYTSSQKNYLAWYQQKPGQSPKLLIYWASTRESGVPDRFTGSGSGTDFTLTITSVKADDLAVYYCQQYYAYPWTFGGGTKLELKRTVAAPSVFIFPPSDEQLKSGTASVVCLLNNFYPREAKVQWKVDNALQSGNSQESVTEQDSKDSTYSLSSTLTLSKADYEKHKVYACEVTHQGLSSPVTKSFNRGEC
notes: Mouse 5D5 variable domains cloned into human Cg1 (z, non-a) and human Ck vectors; also called cMet mAb; wild-type c-Met antibody
For the molecule B3, the figures for the EC50 (in test [4]; in the test with biotin-labeled c-Met [5]) were 51.8 nM and 0.36 nM, respectively.

B4: cMet-Mut18-GTv2 (antibody, human IgG1, kappa)
heavy: QVQLQQSGPELVRPGASVKMSCRASGYTFTSYWLHWVKQRPGQGLEWIGMIDPSNSDTRFNPNFKDKATLNVDRSSNTAYMLLSSLTSADSAVYYCATYGSYVSPLDYWGQGTSVTVSSASTKGPSVFPLAPSSKSTSGGTAALGCLVKDYFPEPVTVSWNSGALTSGVHTFPAVLQSSGLYSLSSVVTVPSSSLGTQTYICNVNHKPSNTKVDKKVEPKSCDKTHTSPPSPAPELLGGPSVFLFPPKPKDTLMISRTPEVTCVVVDVSHEDPEVKFNWYVDGVEVHNAKTKPREEQYNSTYRVVSVLAVLHQDWLNGKEYKCKVSNKALPAPIEKTISKAKGQPREPQVYTLPPSREEMTKNQVSLTCLVKGFYPSDIAVAWESNGQPENNYKTTPPVLDSDGSFRLYSKLTVDKSRWQQGNVFSCSVMHEALHAHYTQKSLSLSPGK
light: B3 light
notes: also called cMetHC-Mut18-GTv2
For the molecule B4, the EC50 in test [4] amounted to 15 nM.

B5: cMet-Mut20 (antibody, human IgG1, kappa)
heavy: B4 heavy with A309T, A382E, R407F, K411D, A436N
light: B3 light
notes: Half-Ig; CH3 K409D; 91.7 % half-Ig by SEC; also called cMetHC-Mut20
As for B5, it took 1230 nM to reach a half-maximal effect in test [6] (EC50).

B6: cMet-Mut18-QL (antibody, human IgG1, kappa)
heavy: B4 heavy with T252Q, A309T, A382E, M430L, A436N
light: B3 light
notes: also called cMetHC-Mut18-QL
In test [4], B6 yielded an EC50 of 35 nM.

B7: cMet-Mut6 half-Ig binding protein (antibody)
heavy: B4 heavy with C222S, S231C, A309T, A382E, P398A, Y409R, K411D, A436N
light: B3 light
notes: Half-Ig; CH3 P395A, F405R, Y407R, K409D; 100 % half-Ig by SEC; also called cMetHC-Mut6
B7: in the test with biotin-labeled c-Met [7], the EC50 was 0.46 nM.

B8: ½ IL12/IL18/PGE2 TVD (other)
heavy: EVTLRESGPALVKPTQTLTLTCTFSGFSLSKSVMGVSWIRQPPGKALEWLAHIYWDDDKYYNPSLKSRLTISKDTSKNQVVLTMTNMDPVDTATYYCARRGIRSAMDYWGQGTTVTVSSASTKGPEVQLVQSGTEVKKPGESLKISCKGSGYTVTSYWIGWVRQMPGKGLEWMGFIYPGDSETRYSPTFQGQVTISADKSFNTAFLQWSSLKASDTAMYYCARVGSGWYPYTFDIWGQGTMVTVSSASTKGPEVQLVQSGAEVKKPGASVKVSCKASGYTFTKYWLGWVRQAPGQGLEWMGDIYPGYDYTHYNEKFKDRVTLTTDTSTSTAYMELRSLRSDDTAVYYCARSDGSSTYWGQGTLVTVSSASTKGPSVFPLAPSSKSTSGGTAALGCLVKDYFPEPVTVSWNSGALTSGVHTFPAVLQSSGLYSLSSVVTVPSSSLGTQTYICNVNHKPSNTKVDKKVEPKSCDKTHTSPPSPAPELLGGPSVFLFPPKPKDTLMISRTPEVTCVVVDVSHEDPEVKFNWYVDGVEVHNAKTKPREEQYNSTYRVVSVLTVLHQDWLNGKEYKCKVSNKALPAPIEKTISKAKGQPREPQVYTLPPSREEMTKNQVSLTCLVKGFYPSDIAVEWESNGQPENNYKTTPPVLDSDGSFRLYSKLTVDKSRWQQGNVFSCSVMHEALHNHYTQKSLSLSPGK
light: DIVMTQSPDSLAVSLGERATINCKASQSVSNDVAWYQQKPGQPPKLLIYYASNRYTGVPDRFSGSGSGTDFTLTISSLQAEDVAVYYCQQDYNSPWTFGGGTKVEIKRTVAAPEIVMTQSPATLSVSPGERATLSCRASESISSNLAWYQQKPGQAPRLFIYTASTRATDIPARFSGSGSGTEFTLTISSLQSEDFAVYYCQQYNNWPSITFGQGTRLEIKRTVAAPDVLMTQTPLSLPVTPGEPASISCTSSQNIVHSNGNTYLEWYLQKPGQSPQLLIYKVSNRFSGVPDRFSGSGSGTDFTLKISRVEAEDVGVYYCFQVSHVPYTFGGGTKVEIKRTVAAPSVFIFPPSDEQLKSGTASVVCLLNNFYPREAKVQWKVDNALQSGNSQESVTEQDSKDSTYSLSSTLTLSKADYEKHKVYACEVTHQGLSSPVTKSFNRGEC
notes: Half TVD with hCg1-Mut18 (F405R, C226S, C229S); 78 % by SEC; also called Half IL12/IL18/PGE2 TVD; IL12/IL18/PGE2 TVD half-Ig
In the test with human IL-12 [8], B8 yielded a Kd of 0.13 nM, a koff of 5.1e-05 s⁻¹ and a kon of 400000 M⁻¹ s⁻¹. Further, in the test with recombinant human IL-18 [9], the Kd turned out to be 0.44 nM, the koff is 5.9e-05 s⁻¹ and the kon was found to be 130000 M⁻¹ s⁻¹. Moreover, the “Neutralization of IL-12 IC50 (nM); IFN-γ release from PHA blast cells” value with human IL-12 [10] was determined as 12.5 nM. Also, the “Neutralization of IL-18 IC50 (nM); IFN-γ release from KG-1 cells” value in the test with recombinant human IL-18 [11] was determined as 0.918 nM.
